The target in the assay is C-CA (W184A/M185A) (HIV-1) (UniProt P04591). Put plainly: NMR, slow exchange kinetics of binding.

The record followed here is patent publication US8940864.

Some results are limits rather than exact numbers.

Consider NYAD-1 (peptide), for which the Kd is less than 10 µM.

The Kd is the concentration at which binding is half-saturated. The low end stands for higher affinity, the high end for lower affinity.
